Results on one molecule are retold here after paper PMC5043356, “A general solution for opening double-stranded DNA for isothermal amplification”.

This series deals with RecA (Escherichia coli BJ5183, UniProt P0A7G6 1-353). Nature of the series: EMSA; no nucleotide cofactor; 1 mM Mg2+ (10 mM in Fig. S1B); about 5 nt per RecA; 25 mM Tris pH 7.6, 1 mM MgCl2 (10 mM in supplementary assays), 1 mM DTT, 37 C, 10 min, 12 pmol X1 in 10 ul; 2% native agarose gel. Particulars: protein: recombinant; tags: His tag (pET28a, Ni purification); single strand. (Mobility shift assays separate free from complexed probe on a gel.)
Chain of RecA (P0A7G6 whole entry): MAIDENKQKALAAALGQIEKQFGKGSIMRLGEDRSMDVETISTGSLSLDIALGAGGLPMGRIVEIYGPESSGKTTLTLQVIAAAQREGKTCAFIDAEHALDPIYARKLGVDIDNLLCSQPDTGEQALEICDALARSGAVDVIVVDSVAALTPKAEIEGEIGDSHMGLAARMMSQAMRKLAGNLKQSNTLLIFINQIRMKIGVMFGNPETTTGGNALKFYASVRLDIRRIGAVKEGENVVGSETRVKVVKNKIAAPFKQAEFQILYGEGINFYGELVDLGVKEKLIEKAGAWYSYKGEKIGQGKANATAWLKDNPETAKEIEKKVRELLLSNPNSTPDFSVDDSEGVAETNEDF

B1: X1 (54 nt) (ssDNA)
DNA: TACGTTAACAAAAAGTCAGATATGGACCTTGCTGCTAAAGGTCTAGGAGCTAAA
For the molecule B1, the binding result was “binds”.
